Assay results: patent publication US20060252678A1

Molecular target: mouse LSR (lipolysis stimulated receptor) (mouse) (UniProt Q99KG5)
Assay: cell-based or functional assay

Chain of UniProt Q99KG5 (Q99KG5 36-594): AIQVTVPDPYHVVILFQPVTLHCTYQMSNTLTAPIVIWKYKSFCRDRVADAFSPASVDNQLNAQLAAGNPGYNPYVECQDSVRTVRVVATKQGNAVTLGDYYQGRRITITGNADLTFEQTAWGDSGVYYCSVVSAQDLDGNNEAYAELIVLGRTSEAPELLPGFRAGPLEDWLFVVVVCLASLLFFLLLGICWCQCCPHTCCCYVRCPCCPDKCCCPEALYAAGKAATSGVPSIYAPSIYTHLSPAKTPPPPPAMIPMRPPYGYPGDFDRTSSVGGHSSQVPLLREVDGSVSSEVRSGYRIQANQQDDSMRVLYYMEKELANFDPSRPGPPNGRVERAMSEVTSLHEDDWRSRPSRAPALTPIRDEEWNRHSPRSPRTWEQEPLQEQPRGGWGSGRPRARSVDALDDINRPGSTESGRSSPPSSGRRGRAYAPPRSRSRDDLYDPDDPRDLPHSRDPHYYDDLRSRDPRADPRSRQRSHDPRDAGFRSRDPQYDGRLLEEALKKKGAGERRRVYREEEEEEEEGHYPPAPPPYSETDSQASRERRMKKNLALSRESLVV

- cell-associated 125I-leptin in BPRCL mouse liver cells after pre-incubation with increasing AdipoQ (AQ) or globular AdipoQ (AQ-GH): > 30%
Substance: 125I-mouse leptin (from UniProt P41160 22-167) (ligand)
